Measured values as given in patent publication US20200129532.

Biological target: T1, HA-tagged VDR (vitamin D receptor), wild type, P11473
T1 chain: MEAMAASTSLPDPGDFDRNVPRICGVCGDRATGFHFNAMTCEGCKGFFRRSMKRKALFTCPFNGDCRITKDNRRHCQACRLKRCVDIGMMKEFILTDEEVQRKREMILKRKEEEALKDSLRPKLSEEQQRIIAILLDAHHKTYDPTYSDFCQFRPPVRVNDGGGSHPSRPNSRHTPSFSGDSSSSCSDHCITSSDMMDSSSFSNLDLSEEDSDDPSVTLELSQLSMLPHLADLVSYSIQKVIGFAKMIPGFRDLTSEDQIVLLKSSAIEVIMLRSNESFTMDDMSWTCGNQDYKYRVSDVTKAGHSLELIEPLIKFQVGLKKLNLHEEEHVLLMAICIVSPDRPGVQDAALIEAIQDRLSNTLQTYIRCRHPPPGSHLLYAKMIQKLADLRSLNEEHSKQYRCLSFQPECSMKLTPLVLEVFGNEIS

B1: PCAF, wild-type, overexpressed in 293T cells (protein)
chain: MSEAGGAGPGGCGAGAGAGAGPGALPPQPAALPPAPPQGSPCAAAAGGSGACGPATAVAAAGTAEGPGGGGSARIAVKKAQLRSAPRAKKLEKLGVYSACKAEESCKCNGWKNPNPSPTPPRADLQQIIVSLTESCRSCSHALAAHVSHLENVSEEEMNRLLGIVLDVEYLFTCVHKEEDADTKQVYFYLFKLLRKSILQRGKPVVEGSLEKKPPFEKPSIEQGVNNFVQYKFSHLPAKERQTIVELAKMFLNRINYWHLEAPSQRRLRSPNDDISGYKENYTRWLCYCNVPQFCDSLPRYETTQVFGRTLLRSVFTVMRRQLLEQARQEKDKLPLEKRTLILTHFPKFLSMLEEEVYSQNSPIWDQDFLSASSRTSQLGIQTVINPPPVAGTISYNSTSSSLEQPNAGSSSPACKASSGLEANPGEKRKMTDSHVLEEAKKPRVMGDIPMELINEVMSTITDPAAMLGPETNFLSAHSARDEAARLEERRGVIEFHVVGNSLNQKPNKKILMWLVGLQNVFSHQLPRMPKEYITRLVFDPKHKTLALIKDGRVIGGICFRMFPSQGFTEIVFCAVTSNEQVKGYGTHLMNHLKEYHIKHDILNFLTYADEYAIGYFKKQGFSKEIKIPKTKYVGYIKDYEGATLMGCELNPRIPYTEFSVIIKKQKEIIKKLIERKQAQIRKVYPGLSCFKDGVRQIPIESIPGIRETGWKPSGKEKSKEPRDPDQLYSTLKSILQQVKSHQSAWPFMEPVKRTEAPGYYEVIRFPMDLKTMSERLKNRYYVSKKLFMADLQRVFTNCKEYNPPESEYYKCANILEKFFFSKIKEAGLIDK
B1 was tested, and the VDR acetylation was “VDR acetylation indeed increased when expressed together with PCAF”.
